What is called EC50 is the concentration giving half of the maximal effect. The low end stands for higher potency in that assay, the high end for lower potency in that assay.

Experimental findings from US20230322943A1 (SUNSHINE GUOJIAN PHARMACEUTICAL SHANGHAI, published 2023) are described below.

Experiment [1] concerns the target T1, human full-length CD38 on cells (human, UniProt P28907 1-300). In words: cell-based or functional assay.
Experiment [2] addresses T1, human full-length CD38 on cells. Briefly: flow cytometry on Daudi cells (MFI), FITC goat anti-human Fc secondary antibody. A general note: In flow cytometry, cells or beads pass a laser one at a time.
Procedure: After Daudi cells were counted, PBS solution containing 1% BSA was used to inoculate the cells into 96-well round-bottom culture plates with 2×10⁵ cells per well. 50 µl anti-CD38 antibody in gradient dilution with PBS solution was added to the 96-well plate. The plate was incubated at room temperature for 1 h, then it was centrifuged to discard the supernatant. Then the cells was washed with PBS twice. FITC-labeled goat anti-human (Fc-Speicific) antibody was added (1:1000 diluted with PBS containing 1% BSA) and the plate was incubated at room temperature for half an hour. The cells was centrifuged and washed, then the Mean Fluorescence Intensity (MFI) of the FITC channel was detected by flow cytometry. The flow cytometer software was used to process the experimental data and the mean fluorescence intensity was calculated. The GraphPad Prism6 was used for data analysis and mapping, and EC50 was calculated.
Another experiment concerns the target T2, human CD38-Fc protein (human, UniProt P28907 43-300).
T2 construct: extracellular domain; Recombinant Fc-tagged extracellular segment of human CD38; not shown: Fc tag
In words: indirect ELISA, CD38-Fc coated at 1 ug/ml, HRP goat anti-mouse IgG. A general note: In an ELISA, binding on a coated surface is turned into a signal by an enzyme label.

Experiment [3] deals with T1, human full-length CD38 on cells. In words: flow cytometry on CHOS-CD38 cells, PE secondary antibody.
Source text: (§1) Flow cytometry was used to detect the binding activity of murine antibodies to recombinant high-expression cell line CHOS-CD38 cells and tumor cell line DND-41 cells. The specific methods were as follows:
(§2) CHOS-CD38 and DND-41 cells were collected, centrifuged to remove the cell culture medium, and the cells were washed twice with PBS buffer. The cells were counted and diluted with 1%BSA FACS buffer to 2^{∗}10⁶ cells/ml. The cells were spread into round-bottom 96-well plate for use. The antibody to be tested was diluted with 1%BSA buffer for 8 gradients and added to the round-bottom plate with the above cells. The plate was incubated at 4° C. for 1 hour. After centrifugation, the supernatant was removed and the plate was washed 3 times with 1% BSA FACS buffer. 100 µl donkey anti-mouse PE fluorescent secondary antibody or goat anti-human PE fluorescent secondary antibody was added to each well at a ratio of 1:300 (see the instructions for fluorescent secondary antibody for details), and the plate was incubated at 4° C. for 1 hour. The samples were washed for 3 times with 1% BSA FACS buffer and then re-suspended with 1% BSA FACS buffer at 200 µl/well. FACScalibur BD was used to analyze the samples.
Experiment [4] shares this target. In words: flow cytometry on DND-41 tumor cells, PE secondary antibody.
Source text: as §1, §2

Procedure for human CD38-Fc protein: The binding ability of murine antibody to human CD38-Fc protein was determined by indirect enzyme-linked immunosorbent assay (ELISA).
CD38-Fc protein was diluted in coating solution (50 mM carbonate coating buffer, pH 9.6) to 1 µg/ml to coat plate at 4° C. overnight. Then the plate was blocked with 5% skim milk and incubated at 37° C. for 2 hours. […] The plate was washed with PBST for 3 times, and the HRP-labeled goat anti-mouse IgG was added and placed at 37° C. for 30 min. After washing the plate with PBST for 3 times, the plate was patted on the absorbent paper to remove residual droplets as far as possible. 100 µl TMB was added to each well, and then the plate was placed at room temperature (20±5° C.) away from light for 5 min. Then 50 µl 2 M H₂SO₄ terminating solution was added to each well to terminate the substrate reaction. OD values were read at 450 nm on the microplate reader to analyze the binding ability of the tested antibody to the target antigen human CD38-Fc.

B1: 50G12-Humanized (antibody, human IgG1, kappa, V domains shown)
VH: QVQLVQSGAEVKKPGASVKVSCKASGYTFNTYWMQWVRQAPGQGLEWMGAIYPGDGDITYNQKFKGRVTLTADKSTSTVYMELSSLRSEDTAVYYCAREGYYYGGALDYWGQGTLVTVSS
VL: DIQMTQSPSSLSASVGDRVTITCTASSSVSSSYLHWYQQKPGKAPKLWMYGTSNLASGVPSRFSGSGSGTDYTLTISSLQPEDFATYYCHRYHRSPWTFGQGTKVEIKR
notes: Human IgG1 / Kappa; also called humanized antibody 50G12-Humanized; 50G12-Hu-HC / 50G12-Hu-LC
For B1, in experiment [1], the “ADCC EC50 (Daudi target cells, human PBMC effectors, LDH release)” value is 0.106 nM and the “apoptosis induction EC50 (Daudi cells, Annexin V-FITC)” value was 0.568 nM. This molecule also registered an EC50 in experiment [2] of 0.605 nM.

B2: murine antibody 50G12 (antibody, V domains shown)
VH: QVQLQQSGAELARPGASVKLSCKASGYTFNTYWMQWVKQRPGQGLEWIGAIYPGDGDITYNQKFKGKATLTADKSSNTAYMHLSSLASEDSAVYYCAREGYYYGGALDYWGQGTSVTVSS
VL: QIFLTQSPAIMSASLGERVTMTCTASSSVSSSYLHWYQQKPGSPPKLWMYGTSNLASGVPPRFSGSGSGTSYSLTISSMEAEDAATYYCHRYHRSPWTFGGGTKLEIK
notes: Mouse monoclonal antibody purified from hybridoma supernatant by Protein G; also called 50Ga12; 50G12 murine antibody
B2: the EC50 came to 0.173 nM with human CD38-Fc protein, 0.687 µg/mL in experiment [3] and 0.134 µg/mL in experiment [4].

B3: 50G12-Chimeric (antibody, human IgG1, V domains shown)
VH: B2 VH
VL: B2 VL
notes: Murine 50G12 VH joined to the human IgG1 heavy chain constant region and murine 50G12 VL joined to the human Kappa chain constant region; also called 50G12-Chimeic; 50G12-Chi-HC / 50G12-Chi-LC
Consider B3, for which the EC50 in experiment [2] came out at 0.528 nM.
